Data: IntAct's records for PubMed 26853155

B1: Syncytin-2 (Homo sapiens), P60508 (parent)
chain: MGLLLLVLILTPSLAAYRHPDFPLLEKAQQLLQSTGSPYSTNCWLCTSSSTETPGTAYPASPREWTSIEAELHISYRWDPNLKGLMRPANSLLSTVKQDFPDIRQKPPIFGPIFTNINLMGIAPICVMAKRKNGTNVGTLPSTVCNVTFTVDSNQQTYQTYTHNQFRHQPRFPKPPNITFPQGTLLDKSSRFCQGRPSSCSTRNFWFRPADYNQCLQISNLSSTAEWVLLDQTRNSLFWENKTKGANQSQTPCVQVLAGMTIATSYLGISAVSEFFGTSLTPLFHFHISTCLKTQGAFYICGQSIHQCLPSNWTGTCTIGYVTPDIFIAPGNLSLPIPIYGNSPLPRVRRAIHFIPLLAGLGILAGTGTGIAGITKASLTYSQLSKEIANNIDTMAKALTTMQEQIDSLAAVVLQNRRGLDMLTAAQGGICLALDEKCCFWVNQSGKVQDNIRQLLNQASSLRERATQGWLNWEGTWKWFSWVLPLTGPLVSLLLLLLFGPCLLNLITQFVSSRLQAIKLQTNLSAGRHPRNIQESPF
partner: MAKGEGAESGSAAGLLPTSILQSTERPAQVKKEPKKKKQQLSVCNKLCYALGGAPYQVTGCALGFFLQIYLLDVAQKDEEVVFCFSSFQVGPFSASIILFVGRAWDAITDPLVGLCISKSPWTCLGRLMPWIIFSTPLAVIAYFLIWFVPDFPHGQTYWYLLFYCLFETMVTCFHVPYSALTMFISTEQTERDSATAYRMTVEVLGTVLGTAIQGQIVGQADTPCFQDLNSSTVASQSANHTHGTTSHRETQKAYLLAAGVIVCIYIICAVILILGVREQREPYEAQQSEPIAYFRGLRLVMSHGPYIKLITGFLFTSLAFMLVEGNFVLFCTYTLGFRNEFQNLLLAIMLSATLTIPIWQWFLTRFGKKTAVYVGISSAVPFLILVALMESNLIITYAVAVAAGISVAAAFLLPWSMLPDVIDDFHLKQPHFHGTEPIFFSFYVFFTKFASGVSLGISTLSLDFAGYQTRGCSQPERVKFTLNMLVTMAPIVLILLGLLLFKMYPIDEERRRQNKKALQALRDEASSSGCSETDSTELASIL

Variants of: B1
Details: with nls1_human MFSD2A

| effect of a mutation on the interaction | Variant |
| --- | --- |
| disrupting interaction strength | MGLLLLVLILTPSLAAYRHPDFPLLEKAQQLLQSTGSPYSTNCWLCTSSSTETPGTAYPASPREWTSIEAELHISYRWDPNLKGLMRPANSLLSTVKQDFPDIRQKPPIFGPIFTNINLMGIAPICVMAKRKNGTNVGTLPSTVCNVTFTVDSNQQTYQTYTHNQFRHQPRFPKPPNITFPQGTLLDKSSRFCQGRPSSCSTRNFWFRPADYNQCLQISNLSSTAEWVLLDQTRNSLFWENKTKGANQSQTPCVQVLAGMTIATSYLGISAVSEFFGTSLTPLFHFHISTCLKTQGAFYICGQSIHQCLPSNWTGTCTIGYVTPDIFIAPGNLSLPIPIYGNSPLPRVRRAIHFIPLLAGLGILAGTGTGIAGITKASLTYSQLSKEIANNIDTMAKALTTMQEQIDSLAAVVLQNRRGLDMLTAAQGGICLALDEKCCFWVQQSGKVQDNIRQLLNQASSLRERATQGWLNWEGTWKWFSWVLPLTGPLVSLLLLLLFGPCLLNLITQFVSSRLQAIKLQTNLSAGRHPRNIQESPF [N443Q] |
| decreasing interaction strength | MGLLLLVLILTPSLAAYRHPDFPLLEKAQQLLQSTGSPYSTNCWLCTSSSTETPGTAYPASPREWTSIEAELHISYRWDPNLKGLMRPANSLLSTVKQDFPDIRQKPPIFGPIFTNINLMGIAPICVMAKRKNGTNVGTLPSTVCNVTFTVDSNQQTYQTYTHNQFRHQPRFPKPPNITFPQGTLLDKSSRFCQGRPSSCSTRNFWFRPADYNQCLQISNLSSTAEWVLLDQTRNSLFWENKTKGANQSQTPCVQVLAGMTIATSYLGISAVSEFFGTSLTPLFHFHISTCLKTQGAFYICGQSIHQCLPSNWTGTCTIGYVTPDIFIAPGNLSLPIPIYGNSPLPRVRRAIHFIPLLAGLGILAGTGTGIAGITKASLTYSQLSKEIANNIDTMAKALTTMQEQIDSLAAVVLQNRRGLDMLTAAQGGICLALDEKCCFWVNQSGKVQDNIRQLLNQASSLRERATQGWLNWEGTWKWFSWVLPLTGPLVSLLLLLLFGPCLLNLITQFVSSRLQAIKLQMNLSAGRHPRNIQESPF [T522M] |
| decreasing interaction strength | MGLLLLVLILTPSLAAYRHPDFPLLEKAQQLLQSTGSPYSTNCWLCTSSSTETPGTAYPASPREWTSIEAELHISYRWDPNLKGLMRPANSLLSTVKQDFPDIRQKPPIFGPIFTNINLMGIAPICVMAKRKNGTNVGTLPSTVCNVTFTVDSNQQTYQTYTHNQFRHQPRFPKPPNITFPQGTLLDKSSRFCQGRPSSCSTRNFWFRPADYNQCLQISNLSSTAEWVLLDQTRNSLFWENKTKGANQSQTPCVQVLAGMTIATSYLGISAVSEFFGTSLTPLFHFHISTCLKTQGAFYICGQSIHQCLPSNWTGTCTIGYVTPDIFIAPGNLSLPIPIYGNSPLPRVRRAIHFIPLLAGLGILAGTGTGIAGITKASLTYSQLSKEIANNIDTMAKALTTMQEQIDSLAAVVLQNRRGLDMLTAAQGGICLALDEKCCFWVNQSGKVQDNIRQLLNQASSLRERATQGWLNWEGTWKWFSWILPLTGPLVSLLLLLLFGPCLLNLITQFVSSRLQAIKLQTNLSAGRHPRNIQESPF [V483I] |
| decreasing interaction strength | MGLLLLVLILTPSLAAYRHPDFPLLEKAQQLLQSTGSPYSTNCWLCTSSSTETPGTAYPASPREWTSIEAELHISYRWDPNLKGLMRPANSLLSTVKQDFPDIRQKPPIFGPIFTNINLMGIAPICVMAKRKNGTNVGTLPSTVCNVTFTVDSNQQTYQTYTHNQFRHQPRFPKPPNITFPQGTLLDKSSRFCQGRPSSCSTRNFWFRPADYNQCLQISNLSSTAEWVLLDQTRNSLFWENKTKGANQSQTPCVQVLAGMTIATSYLGISAVSEFFGTSLTPLFHFHISTCLKTQGAFYICGQSIHQCLPSNWTGTCTIGYVTPDIFIAPGNLSLPIPIYGNSPLPRVRRAIHFIPLLAGLGILAGTGTGIAGITKASLTYSQLSKEIANNIDTMAKALTTMQEQIDSLAAVVLQNHRGLDMLTAAQGGICLALDEKCCFWVNQSGKVQDNIRQLLNQASSLRERATQGWLNWEGTWKWFSWVLPLTGPLVSLLLLLLFGPCLLNLITQFVSSRLQAIKLQTNLSAGRHPRNIQESPF [R417H] |
